Reference: paper PMC5095350, “Engineered AAA+ proteases reveal principles of proteolysis at the mitochondrial inner membrane” (Nature Communications, 2016)

Experiments:
[1] = biological target: T1, hexYME1L (human) (UniProt Q96TA2)
T1 sequence: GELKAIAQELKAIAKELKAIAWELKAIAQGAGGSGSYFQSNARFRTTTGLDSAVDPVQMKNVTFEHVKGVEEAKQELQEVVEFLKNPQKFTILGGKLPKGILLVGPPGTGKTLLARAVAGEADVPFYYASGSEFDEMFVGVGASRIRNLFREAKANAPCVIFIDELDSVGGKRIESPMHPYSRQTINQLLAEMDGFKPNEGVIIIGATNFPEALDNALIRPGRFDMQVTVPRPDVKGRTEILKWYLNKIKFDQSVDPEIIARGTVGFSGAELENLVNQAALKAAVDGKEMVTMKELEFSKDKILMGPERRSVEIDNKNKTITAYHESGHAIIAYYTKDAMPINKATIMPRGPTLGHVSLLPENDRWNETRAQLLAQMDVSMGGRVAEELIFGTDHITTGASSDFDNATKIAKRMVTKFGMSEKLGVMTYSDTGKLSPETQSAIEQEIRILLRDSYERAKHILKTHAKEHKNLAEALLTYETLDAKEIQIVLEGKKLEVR

[2] = biological target: T1, hexYME1L (human); remark: listed apart in the source
[3] = biological target: T1, hexYME1L (human); remark: listed apart in the source
[4] = biological target: the molecule itself; assay: SEC; analytical SEC, Superose 6 Increase 10/300 GL; 1 mg of protein in 200 μl; 50 mM Tris-HCl (pH 8.0), 100 mM NaCl, 0.5 mM TCEP; hexYME1L also with 5 mM EDTA or with ATPγS and MgCl2 (no change in migration)
[5] = substrate: Nc1ncnc2c1ncn2[C@@H]1O[C@H](COP(=O)(O)OP(=O)(O)OP(=O)(O)O)[C@@H](O)[C@H]1O; assay: purified protein; conditions: Hill form of Michaelis-Menten equation, MgCl2 5 mM, pH 8.0, 37 °C, no protein substrate

**Q.** “I27 domain of human titin (domain or fragment)” was tested. Which stimulation of the ATPase rate of hexYME1L (0.25 μM) by 20 μM substrate (not significant) [1] did it give?
**A.** 6%

**Q.** How did the stimulation of the ATPase rate of hexYME1L (0.25 μM) by 20 μM substrate (not significant) [1] turn out when “carboxymethylated I27 domain of human titin (domain or fragment)” was run?
**A.** 14%

**Q.** How did the KM of ATP-dependent degradation by hexYME1L (1 μM), loss of GFP fluorescence, 37 °C [2] turn out when cp7-^SFGFP-ssrA was run?
**A.** 12 µM

**Q.** For cp7-^SFGFP-sul20C, which KM of ATP-dependent degradation by hexYME1L (1 μM), loss of GFP fluorescence, 37 °C [2] is on record?
**A.** 15.2 µM

B1: β-casein (natural protein)
chain: RELEELNVPGEIVESLSSSEESITRINKKIEKFQSEEQQQTEDELQDKIHPFAQTQSLVYPFPGPIPNSLPQNIPPLTQTPVVVPPFLQPEVMGVSKVKEAMAPKHKEMPFPKYPVEPFTESQSLTLTDVENLHLPLPLLQSWMHQPHQPLPPTVMFPPQSVLSLSQSKVLPVPQKAVPYPQRDMPIQAFLLYQEPVLGPVRGPFPIIV
**Q.** How did the initial rate of ATP-dependent degradation of β-casein (20 μM) by hexYME1L (1 μM), SDS-PAGE (β-casein molecules min^−1 enz6^−1) [3] turn out when B1 was run?
**A.** 0.49

B2: hexYME1L (enzyme, human)
chain: T1 sequence
notes: cc-hex, de novo designed peptide that forms a hexameric coiled coil; replaces the N-terminal domain and transmembrane span of YME1L; 10-residue linker between cc-hex and YME1L-AP; human YME1L isoform 1, AAA+ ATPase domain and M41 protease domain, residues 317-773; also called hexYME1L-AP; hexameric YME1L; source: E. coli BL21 (DE3), purified (glutathione agarose, TEV cleavage, Ni-NTA, SEC); not …
**Q.** Which “stoichiometry N” value [4] does the source give for B2 here?
**A.** ~6

B3: hexYME1L (Homo sapiens) (protein)
chain: RFRTTTGLDSAVDPVQMKNVTFEHVKGVEEAKQELQEVVEFLKNPQKFTILGGKLPKGILLVGPPGTGKTLLARAVAGEADVPFYYASGSEFDEMFVGVGASRIRNLFREAKANAPCVIFIDELDSVGGKRIESPMHPYSRQTINQLLAEMDGFKPNEGVIIIGATNFPEALDNALIRPGRFDMQVTVPRPDVKGRTEILKWYLNKIKFDQSVDPEIIARGTVGFSGAELENLVNQAALKAAVDGKEMVTMKELEFSKDKILMGPERRSVEIDNKNKTITAYHESGHAIIAYYTKDAMPINKATIMPRGPTLGHVSLLPENDRWNETRAQLLAQMDVSMGGRVAEELIFGTDHITTGASSDFDNATKIAKRMVTKFGMSEKLGVMTYSDTGKLSPETQSAIEQEIRILLRDSYERAKHILKTHAKEHKNLAEALLTYETLDAKEIQIVLEGKKLEVR
**Q.** Which K0.5 [5] does the source give for B3 here?
**A.** 1.4 mM
